Data set [1] can be described thus: UV-Vis self-aggregation of the conjugates. The settings on record: UV-Vis 300–650 nm, 5 μM, 10 mM phosphate buffer pH 7.4, room temperature, 0–120 h. It counts as physicochemical. As for the experimental part:
We first studied the effects of peptide conjugation on the porphyrin chromophore, by UV‐Vis spectra in the region between 300–650 nm. The spectra were recorded using a solution of 5 μM Porphyrin‐peptide conjugate in 10 mM phosphate buffer pH 7.4. The UV‐Vis profile of the porphyrin precursor MCPTPyP, recorded at the same concentration, is also shown for the sake of comparison (Figure 1).
Peptide conjugation influences the spectral features of the porphyrin chromophore as evidenced by the red shift in the absorption maximum in the region of the Soret band region. The Q bands are also affected, particularly in the Cu‐Ph‐Pep and Zn‐Ph‐Pep compounds (Figure 1). In this case the presence of a metal ion within the porphyrin's core might contribute to the observed spectral profile of these compounds. […] The fluorescence spectra of the investigated systems were also acquired in view of the interaction of the studied conjugates with cells (see below biological section).[41] The fluorescence spectra were recorded with the photoexcitation at 425±5 nm, in 10 mM phosphate buffer pH 7.4 and 5 μM concentration. The emission spectrum of the porphyrin precursor MCPTPyP ( Ph ) was also obtained for the sake of comparison.
(§1) Spectra were recorded on a Jasco V‐670 Spectrophotometer at room temperature. All measurements were performed in the 300–650 nm wavelength region, in a 10 mM phosphate buffer solution at pH 7.4 using a 1 cm path length quartz cell. The spectra of all the peptide‐porphyrin conjugates, either in the absence or in the presence of equimolar Aβ42, were acquired at 5 μM. In some cases, the same sample solution was used to run the CD spectra. The final concentrations of Aβ42 and peptide conjugates were 5 μM (1 : 1 molar ratio).

For data set [2], the target named is Aβ42 (Homo sapiens, UniProt P05067). The data set is described as follows: UV-Vis of conjugates with equimolar Aβ42. The data set is classed as biochemical. The settings on record: 5 μM conjugate, equimolar Aβ42, 10 mM phosphate buffer pH 7.4, 0, 24, 48 and 120 h. As for the experimental part: The UV‐Vis spectra of porphyrin‐peptide conjugates (5 μM) were recorded in the presence of an equimolar ration of Aβ42 monomers at 0, 24, 48 and 120 h (Figure 2S). […] Therefore, the interaction of the peptide‐porphyrin conjugates with Aβ was further studied using CD spectroscopy. The Aβ42 aggregation process was monitored either in the absence or in the presence of an equimolar amount of the conjugated peptides. A series of CD control experiments were preventively carried out to assess the propensity of the porphyrin‐peptide conjugates to adopt a β‐sheet conformation. The corresponding CD curves are shown in the supplementary material (Figure 3S). […] We then evaluated the ability of the porphyrin‐peptide conjugates to affect the Aβ42’s aggregation process. This was accomplished by running a series of CD experiments on the binary systems in the same experimental conditions as the control CD measurements. A 5 μM Aβ42 sample was used as a positive control of the aggregation process (Figure 3, panel a). In this case, the curve profiles indicate that at 0 h, Aβ42 is predominantly in the random coil conformation, as evidenced by the negative ellipticity around 200 nm. […] The typical dichroic profile characterized by a negative ellipticity at λ=222 nm and a positive band at λ=200 is indicative of this event (Figure 3, panel a).
as §1

Chain of Aβ42 (P05067 672-713 limits assumed): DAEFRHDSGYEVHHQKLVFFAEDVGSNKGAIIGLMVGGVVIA

Turning to `COC(=O)[C@H](Cc1cn(CCCC[C@H](NC(=O)CNC(C)=O)C(=O)N2CCC[C@H]2C(=O)NCC(=O)N[C@@H](CCCCN)C(=O)N[C@@H](CC(C)C)C(=O)N[C@H](C(=O)N[C@@H](Cc2ccccc2)C(=O)N[C@@H](Cc2ccccc2)C(N)=O)C(C)C)nn1)NC(=O)c1ccc(-c2c3nc(c(-c4cc[n+](C)cc4)c4ccc([nH]4)c(-c4cc[n+](C)cc4)c4nc(c(-c5cc[n+](C)cc5)c5ccc2[nH]5)C=C4)C=C3)cc1` [Zn‐Ph‐Pep], the self-aggregation result in data set [1] was “slight propensity to self‐aggregation”. The “UV-Vis spectral change in presence of Aβ42” value in data set [2] is “may suggest a rapid formation of aggregated species”.

For the origin of these results see paper PMC11610669, “A Spectroscopic Study on the Amyloid‐β Interaction with Clicked Peptide‐Porphyrin Conjugates: a Vision Toward the Detection of Aβ Peptides in Aqueous Solution” (Chembiochem, 2024).
